Experimental data from US20180346600A1 (AJOU UNIVERSITY INDUSTRY ACADEMIC COOPERATION FOUNDATION, published 2018).
Where a chain is given by its changes, count along the chain named. Numbers in names are those of the source. Each block holds one binder with its values, some of them ahead of it.

Experiments:
Assay in all cases: flow cytometry of diploid yeast: MFI of Flag-tagged secreted FcCH3B held on displayed FcCH3A (anti-Flag mouse mAb and PE anti-mouse antibody), normalised to EW-RVT = 100 %
[1] = target: T1, displayed FcCH3A, A109 (K370M/K409W), on yeast cell surface (human, UniProt P0DOX5 227-449 = IgG part)
T1 construct: also called A109 CH3A chain (yeast)
T1 Fc: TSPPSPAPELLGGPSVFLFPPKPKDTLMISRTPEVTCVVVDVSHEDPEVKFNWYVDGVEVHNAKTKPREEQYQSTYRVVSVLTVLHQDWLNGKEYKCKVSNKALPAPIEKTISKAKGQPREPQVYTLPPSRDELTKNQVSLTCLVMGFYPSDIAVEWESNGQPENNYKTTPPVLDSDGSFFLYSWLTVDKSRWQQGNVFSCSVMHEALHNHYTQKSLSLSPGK

[2] = target: T2, A107w/oW-VT (displayed FcCH3A on yeast cell surface)
T2 construct: also called A107w/oW-VT CH3A chain (yeast), K370E
T2 Fc: T1 Fc with M146E, W185K
Excerpt: (§1) FACS was sequentially performed four times. […] Table 9 below summarizes the mutation pairs introduced into individual clones selected from the respective LibA2 and LibB2 libraries.

[3] = target: T3, displayed FcCH3A, A241 (E357N/S364W/K370E), on yeast cell surface (human, UniProt P0DOX5 227-449 = IgG part)
T3 construct: also called A241 CH3A chain (yeast)
T3 Fc: T1 Fc with E133N, S140W, M146E, W185K
Excerpt: as §1

[4] = target: T4, displayed FcCH3A, B168 (D399L/K409W), on yeast cell surface (human, UniProt P0DOX5 227-449 = IgG part)
T4 construct: also called B168 CH3A chain (yeast)
T4 Fc: T1 Fc with M146K, D175L

[5] = target: T5, displayed FcCH3A, B212 (K392I/D399L), on yeast cell surface (human, UniProt P0DOX5 227-449 = IgG part)
T5 construct: also called B212 CH3A chain (yeast)
T5 Fc: T1 Fc with M146K, K168I, D175L, W185K
Excerpt: as §1

[6] = target: T6, displayed FcCH3A, B121 (D399E/K409W), on yeast cell surface (human, UniProt P0DOX5 227-449 = IgG part)
T6 construct: also called B121 CH3A chain (yeast)
T6 Fc: T1 Fc with M146K, D175E

[7] = target: T7, displayed FcCH3A, A216 (E357G/S364W/K370E), on yeast cell surface (human, UniProt P0DOX5 227-449 = IgG part)
T7 construct: also called A216 CH3A chain (yeast)
T7 Fc: T1 Fc with E133G, S140W, M146E, W185K
Excerpt: as §1

[8] = target: T8, displayed FcCH3A, A210 (E357A/S364Y/K370E), on yeast cell surface (human, UniProt P0DOX5 227-449 = IgG part)
T8 construct: also called A210 CH3A chain (yeast)
T8 Fc: T1 Fc with E133A, S140Y, M146E, W185K
Excerpt: as §1

[9] = target: T9, displayed FcCH3A, B135 (D399L/K409W), on yeast cell surface (human, UniProt P0DOX5 227-449 = IgG part)
T9 construct: also called B135 CH3A chain (yeast)
T9 Fc: T1 Fc with M146K, D175L

[10] = target: T10, displayed FcCH3A, A146 (K370D/K409W), on yeast cell surface (human, UniProt P0DOX5 227-449 = IgG part)
T10 construct: also called A146 CH3A chain (yeast)
T10 Fc: T1 Fc with M146D

[11] = target: T11, displayed FcCH3A, A205 (E357D/S364W/K370E), on yeast cell surface (human, UniProt P0DOX5 227-449 = IgG part)
T11 construct: also called A205 CH3A chain (yeast)
T11 Fc: T1 Fc with E133D, S140W, M146E, W185K
Excerpt: as §1

[12] = target: T12, B168w/oW-VT (displayed FcCH3A on yeast cell surface)
T12 construct: also called B168w/oW-VT CH3A chain (yeast), D399L
T12 Fc: T1 Fc with M146K, D175L, W185K
Excerpt: as §1

binding result [1]: binds
B1: secreted FcCH3B, A109 (E357M/S364W/D399V/F405T), from yeast (other)
chain: T1 Fc with E133M, S140W, M146K, D175V, F181T, W185K
notes: also called A109 CH3B chain (yeast); not shown: flag-tag

binding result [2]: binds
B2: A107w/oW-VT (secreted FcCH3B from yeast) (other)
secreted Fc chain (hinge-CH2-CH3B): T1 Fc with E133N, M146K, W185K
notes: also called A107w/oW-VT CH3B chain (yeast), E357N

binding result [3]: binds
B3: secreted FcCH3B, A241 (E357N), from yeast (other)
chain: T1 Fc with E133N, M146K, W185K
notes: also called A241 CH3B chain (yeast); not shown: flag-tag

binding result [4]: binds
B4: secreted FcCH3B, B168 (K392G/K409M/D399V/F405T), from yeast (other)
chain: T1 Fc with M146K, K168G, D175V, F181T, W185M
notes: also called B168 CH3B chain (yeast); not shown: flag-tag

binding result [5]: binds
B5: secreted FcCH3B, B212 (D399G/K392G/K409M), from yeast (other)
chain: T1 Fc with M146K, K168G, D175G, W185M
notes: also called B212 CH3B chain (yeast); not shown: flag-tag

binding result [6]: binds
B6: secreted FcCH3B, B121 (K392E/D399V/F405T), from yeast (other)
chain: T1 Fc with M146K, K168E, D175V, F181T, W185K
notes: also called B121 CH3B chain (yeast); not shown: flag-tag

binding result [7]: binds
B7: secreted FcCH3B, A216 (E357N), from yeast (other)
chain: T1 Fc with E133N, M146K, W185K
notes: also called A216 CH3B chain (yeast); not shown: flag-tag

binding result [8]: binds
B8: secreted FcCH3B, A210 (E357N/K370H), from yeast (other)
chain: T1 Fc with E133N, M146H, W185K
notes: also called A210 CH3B chain (yeast); not shown: flag-tag

binding result [9]: binds
B9: secreted FcCH3B, B135 (K392S/K409L/D399V/F405T), from yeast (other)
chain: T1 Fc with M146K, K168S, D175V, F181T, W185L
notes: also called B135 CH3B chain (yeast); not shown: flag-tag

binding result [10]: binds
B10: secreted FcCH3B, A146 (E357M/D399V/F405T), from yeast (other)
chain: T1 Fc with E133M, M146K, D175V, F181T, W185K
notes: also called A146 CH3B chain (yeast); not shown: flag-tag

binding result [11]: binds
B11: secreted FcCH3B, A205 (E357N/K370R), from yeast (other)
chain: T1 Fc with E133N, M146R, W185K
notes: also called A205 CH3B chain (yeast); not shown: flag-tag

binding result [12]: binds
B12: B168w/oW-VT (secreted FcCH3B from yeast) (other)
secreted Fc chain (hinge-CH2-CH3B): T1 Fc with M146K, K168G, W185M
notes: also called B168w/oW-VT CH3B chain (yeast), K392G/K409M
